Results: patent publication US20150037868

Columns and labels:
[1] = molecular target: Pgi-HRV-I526 (Pgi with HRV 3C recognition sequence inserted after amino acid 526)
[2] = molecular target: T1, TktA variant with HRV protease cleavage motif inserted after amino acid 635
T1 chain: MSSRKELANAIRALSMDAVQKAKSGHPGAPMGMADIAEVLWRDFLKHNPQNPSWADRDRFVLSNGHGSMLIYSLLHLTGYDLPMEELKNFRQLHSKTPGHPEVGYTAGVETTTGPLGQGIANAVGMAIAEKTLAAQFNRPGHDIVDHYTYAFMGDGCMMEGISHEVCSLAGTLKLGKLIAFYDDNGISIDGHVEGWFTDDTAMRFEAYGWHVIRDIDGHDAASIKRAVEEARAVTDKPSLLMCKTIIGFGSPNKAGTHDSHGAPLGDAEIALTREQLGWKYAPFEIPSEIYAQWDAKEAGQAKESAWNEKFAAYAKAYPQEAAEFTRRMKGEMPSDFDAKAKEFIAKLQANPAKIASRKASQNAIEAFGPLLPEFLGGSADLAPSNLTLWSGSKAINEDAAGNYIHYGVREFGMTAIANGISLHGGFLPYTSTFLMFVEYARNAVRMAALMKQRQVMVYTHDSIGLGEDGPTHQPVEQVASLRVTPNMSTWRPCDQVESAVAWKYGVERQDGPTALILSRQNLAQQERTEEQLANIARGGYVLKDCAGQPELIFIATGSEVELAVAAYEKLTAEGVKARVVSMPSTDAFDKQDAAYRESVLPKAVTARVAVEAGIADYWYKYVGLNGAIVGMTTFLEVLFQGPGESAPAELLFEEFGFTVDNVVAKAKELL

[3] = molecular target: T2, TktA variant with HRV protease cleavage motif inserted after amino acid 636
T2 chain: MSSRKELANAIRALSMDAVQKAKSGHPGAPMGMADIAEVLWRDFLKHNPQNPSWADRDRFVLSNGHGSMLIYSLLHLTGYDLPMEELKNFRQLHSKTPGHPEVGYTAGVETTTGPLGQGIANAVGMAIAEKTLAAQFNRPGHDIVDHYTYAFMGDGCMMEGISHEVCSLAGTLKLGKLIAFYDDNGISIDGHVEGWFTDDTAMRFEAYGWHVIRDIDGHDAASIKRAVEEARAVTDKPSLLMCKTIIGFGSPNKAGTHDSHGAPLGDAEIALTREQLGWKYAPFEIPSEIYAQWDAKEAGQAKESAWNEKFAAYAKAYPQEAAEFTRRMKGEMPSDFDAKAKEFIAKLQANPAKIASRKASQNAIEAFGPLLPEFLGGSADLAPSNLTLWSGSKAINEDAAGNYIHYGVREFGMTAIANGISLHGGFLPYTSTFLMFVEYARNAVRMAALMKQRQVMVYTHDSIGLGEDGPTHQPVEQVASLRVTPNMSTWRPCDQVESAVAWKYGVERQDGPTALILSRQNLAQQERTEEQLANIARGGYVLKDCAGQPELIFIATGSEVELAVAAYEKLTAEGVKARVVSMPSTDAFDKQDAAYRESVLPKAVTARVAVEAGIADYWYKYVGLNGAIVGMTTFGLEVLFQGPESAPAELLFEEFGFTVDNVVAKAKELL

[4] = molecular target: T3, TktA variant with HRV protease cleavage motif inserted after amino acid 637
T3 chain: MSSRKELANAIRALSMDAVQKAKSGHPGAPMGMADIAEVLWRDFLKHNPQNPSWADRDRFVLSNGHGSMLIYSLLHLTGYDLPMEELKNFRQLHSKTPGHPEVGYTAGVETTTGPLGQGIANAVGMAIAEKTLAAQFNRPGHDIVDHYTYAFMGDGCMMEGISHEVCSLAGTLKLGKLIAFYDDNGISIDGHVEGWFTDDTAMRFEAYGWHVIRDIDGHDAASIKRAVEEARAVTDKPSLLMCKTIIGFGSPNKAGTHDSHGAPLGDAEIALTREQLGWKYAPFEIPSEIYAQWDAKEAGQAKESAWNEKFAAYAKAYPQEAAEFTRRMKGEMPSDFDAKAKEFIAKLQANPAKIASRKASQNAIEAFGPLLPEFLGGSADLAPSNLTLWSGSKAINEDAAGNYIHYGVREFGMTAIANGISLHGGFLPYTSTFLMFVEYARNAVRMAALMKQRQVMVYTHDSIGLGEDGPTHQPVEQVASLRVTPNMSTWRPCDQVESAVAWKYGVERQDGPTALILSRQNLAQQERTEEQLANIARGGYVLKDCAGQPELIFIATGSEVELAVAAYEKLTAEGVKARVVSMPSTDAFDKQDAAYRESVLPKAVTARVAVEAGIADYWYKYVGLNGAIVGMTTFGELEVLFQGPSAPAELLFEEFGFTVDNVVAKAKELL

[5] = molecular target: T4, TktA variant with HRV protease cleavage motif inserted after amino acid 638
T4 chain: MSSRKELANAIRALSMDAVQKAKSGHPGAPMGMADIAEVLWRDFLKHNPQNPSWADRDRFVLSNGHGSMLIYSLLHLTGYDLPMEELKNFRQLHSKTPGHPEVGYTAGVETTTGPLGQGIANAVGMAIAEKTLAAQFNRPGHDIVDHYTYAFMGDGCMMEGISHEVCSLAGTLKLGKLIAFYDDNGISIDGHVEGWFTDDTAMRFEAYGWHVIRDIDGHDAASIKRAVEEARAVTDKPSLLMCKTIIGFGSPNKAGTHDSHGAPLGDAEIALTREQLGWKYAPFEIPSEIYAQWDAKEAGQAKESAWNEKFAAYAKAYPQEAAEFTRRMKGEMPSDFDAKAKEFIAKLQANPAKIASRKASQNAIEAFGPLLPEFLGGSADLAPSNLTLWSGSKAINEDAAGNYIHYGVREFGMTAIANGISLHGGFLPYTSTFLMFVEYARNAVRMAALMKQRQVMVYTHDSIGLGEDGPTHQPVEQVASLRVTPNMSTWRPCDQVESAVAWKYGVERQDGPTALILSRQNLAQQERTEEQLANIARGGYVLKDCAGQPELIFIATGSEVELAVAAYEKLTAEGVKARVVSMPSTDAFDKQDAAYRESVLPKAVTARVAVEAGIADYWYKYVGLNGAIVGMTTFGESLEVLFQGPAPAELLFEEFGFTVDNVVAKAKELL

[6] = molecular target: T5, TktA variant with HRV protease cleavage motif inserted after amino acid 640
T5 chain: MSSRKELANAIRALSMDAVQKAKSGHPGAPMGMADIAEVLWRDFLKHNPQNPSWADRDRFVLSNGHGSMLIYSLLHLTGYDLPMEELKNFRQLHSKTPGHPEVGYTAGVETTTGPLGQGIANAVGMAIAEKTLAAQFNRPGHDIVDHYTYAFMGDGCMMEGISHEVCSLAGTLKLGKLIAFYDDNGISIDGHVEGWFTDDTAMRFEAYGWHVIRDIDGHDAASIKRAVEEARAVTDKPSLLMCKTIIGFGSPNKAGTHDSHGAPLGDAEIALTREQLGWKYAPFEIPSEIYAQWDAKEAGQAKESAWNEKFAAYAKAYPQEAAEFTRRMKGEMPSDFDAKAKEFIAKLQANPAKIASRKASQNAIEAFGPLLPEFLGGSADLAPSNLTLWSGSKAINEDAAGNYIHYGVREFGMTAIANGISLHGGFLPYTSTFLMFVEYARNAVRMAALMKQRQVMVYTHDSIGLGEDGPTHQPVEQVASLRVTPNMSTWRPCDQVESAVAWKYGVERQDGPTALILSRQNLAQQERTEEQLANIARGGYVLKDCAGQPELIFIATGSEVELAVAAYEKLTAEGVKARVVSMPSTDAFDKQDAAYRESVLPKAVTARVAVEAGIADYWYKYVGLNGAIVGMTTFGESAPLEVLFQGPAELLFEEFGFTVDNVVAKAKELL

[7] = molecular target: T6, wild-type TktA protein (transketolase A of Escherichia coli)
T6 chain: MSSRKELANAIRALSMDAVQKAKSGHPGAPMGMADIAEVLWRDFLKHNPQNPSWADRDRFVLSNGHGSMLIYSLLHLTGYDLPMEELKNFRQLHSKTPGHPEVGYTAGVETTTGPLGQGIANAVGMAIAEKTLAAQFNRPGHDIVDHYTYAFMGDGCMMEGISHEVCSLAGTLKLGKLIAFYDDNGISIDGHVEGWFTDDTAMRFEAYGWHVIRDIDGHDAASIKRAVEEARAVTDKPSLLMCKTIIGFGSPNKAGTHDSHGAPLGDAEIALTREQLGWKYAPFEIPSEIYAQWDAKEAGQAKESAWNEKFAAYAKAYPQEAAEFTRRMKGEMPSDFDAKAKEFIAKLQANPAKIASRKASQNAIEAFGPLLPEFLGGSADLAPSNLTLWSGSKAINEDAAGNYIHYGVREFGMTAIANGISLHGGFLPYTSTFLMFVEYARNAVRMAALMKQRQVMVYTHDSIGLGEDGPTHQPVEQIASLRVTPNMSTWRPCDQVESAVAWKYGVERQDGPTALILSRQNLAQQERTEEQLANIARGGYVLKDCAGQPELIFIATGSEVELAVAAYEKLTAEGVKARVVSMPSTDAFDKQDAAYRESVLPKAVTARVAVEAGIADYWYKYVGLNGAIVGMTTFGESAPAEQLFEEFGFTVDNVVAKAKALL

B1: HRV 3C protease (codon-optimized for expression in E. coli), cytoplasmic (protein)
chain: MGPEEEFGMSLIKHNSCVITTENGKFTGLGVYDRFVVVPTHADPGKEIQVDGITTKVIDSYDLYNKNGIKLEITVLKLDRNEKFRDIRRYIPNNEDDYPNCNLALLANQPEPTIINVGDVVSYGNILLSGNQTARMLKYSYPTKSGYCGGVLYKIGQVLGIHVGGNGRDGFSAMLLRSYFTDVQ
Pgi activity in clarified lysate after 2 h IPTG induction of cytoplasmic HRV 3C protease (pGLC221, no OmpA leader); no-protease strain 1.3 (µmol/min/mg total protein) [1]: -0.01
growth rate in minimal glucose medium, HRV protease +inducer (2% arabinose, pGLC217); -inducer value 0.58 [2]: 0.47
growth rate in minimal glucose medium, HRV protease +inducer (2% arabinose, pGLC217); -inducer value 0.43 [3]: 0.17
growth rate in minimal glucose medium, HRV protease +inducer (2% arabinose, pGLC217); -inducer value 0.40 [4]: 0.11
growth rate in minimal glucose medium, HRV protease +inducer (2% arabinose, pGLC217); -inducer value 0.13 [5]: 0.08
growth rate in minimal glucose medium, HRV protease +inducer (2% arabinose, pGLC217); -inducer value 0.55 [6]: 0.34
growth rate in minimal glucose medium, HRV protease +inducer (2% arabinose, pGLC217); -inducer value 0.60 [7]: 0.57

B2: HRV 3C protease with an N-terminal OmpA leader sequence (periplasmic) (protein)
chain: GPEEEFGMSLIKHNSCVITTENGKFTGLGVYDRFVVVPTHADPGKEIQVDGITTKVIDSYDLYNKNGIKLEITVLKLDRNEKFRDIRRYIPNNEDDYPNCNLALLANQPEPTIINVGDVVSYGNILLSGNQTARMLKYSYPTKSGYCGGVLYKIGQVLGIHVGGNGRDGFSAMLLRSYFTDVQ
Pgi activity in clarified lysate after 2 h IPTG induction of periplasmically sequestered HRV 3C protease (pGLC089, OmpA leader); no-protease strain 1.3 (µmol/min/mg total protein) [1]: 0.01

B3: tobacco etch virus (TEV) protease (protein)
chain: GESLFKGPRDYNPISSTICHLTNESDGHTTSLYGIGFGPFIITNKHLFRRNNGTLLVQSLHGVFKVKNTTTLQQHLIDGRDMIIIRMPKDFPPFPQKLKFREPQREERICLVTTNFQTKSMSSMVSDTSCTFPSSDGIFWKHWIQTKDGQCGSPLVSTRDGFIVGIHSASNFTNTNNYFTSVPKNFMELLTNQEAQQWVSGWRLNADSVLWGGHKVFMSKPEEPFQPVKEATQLMNELVYSQ
growth rate in minimal glucose medium, TEV protease control +inducer (2% arabinose, pGLC219); -inducer value 0.52 [2]: 0.52
growth rate in minimal glucose medium, TEV protease control +inducer (2% arabinose, pGLC219); -inducer value 0.39 [3]: 0.42
growth rate in minimal glucose medium, TEV protease control +inducer (2% arabinose, pGLC219); -inducer value 0.46 [4]: 0.46
growth rate in minimal glucose medium, TEV protease control +inducer (2% arabinose, pGLC219); -inducer value 0.18 [5]: 0.18
growth rate in minimal glucose medium, TEV protease control +inducer (2% arabinose, pGLC219); -inducer value 0.48 [6]: 0.52
growth rate in minimal glucose medium, TEV protease control +inducer (2% arabinose, pGLC219); -inducer value 0.55 [7]: 0.53
